How the values were obtained:
[1] = target: human ADAM9 (Disintegrin and Metalloproteinase Domain-containing Protein 9), on cells (human) (UniProt Q13443); assay: IHC staining of human tumour tissue: Prostate CA (ILS20758-D3); antibody at 0.4 µg/mL
[2] = target: human ADAM9 (Disintegrin and Metalloproteinase Domain-containing Protein 9), on cells (human) (UniProt Q13443); assay: IHC staining of human tumour tissue: Colon CA (ILS10369 B); antibody at 0.4 µg/mL
[3] = target: human ADAM9 (Disintegrin and Metalloproteinase Domain-containing Protein 9), on cells (human) (UniProt Q13443); assay: IHC staining of human tumour tissue: NSCLC (ILS7115 D), Squamous Cell Carcinoma; antibody at 0.4 µg/mL
[4] = target: human ADAM9 (Disintegrin and Metalloproteinase Domain-containing Protein 9), on cells (human) (UniProt Q13443); assay: IHC staining of human tumour tissue: NSCLC (ILS10901), Adenocarcinoma; antibody at 0.4 µg/mL
[5] = target: human ADAM9 (Disintegrin and Metalloproteinase Domain-containing Protein 9), on cells (human) (UniProt Q13443); assay: IHC staining of human tumour tissue: Gastric CA (ILS-450 A); antibody at 0.4 µg/mL
[6] = target: human ADAM9 (Disintegrin and Metalloproteinase Domain-containing Protein 9), on cells (human) (UniProt Q13443); assay: IHC staining of human tumour tissue: NSCLC (ILS7223), Squamous Cell Carcinoma; antibody at 0.4 µg/mL
[7] = target: human ADAM9 (Disintegrin and Metalloproteinase Domain-containing Protein 9), on cells (human) (UniProt Q13443); assay: IHC staining of human tumour tissue: Colon CA (ILS10341 B); antibody at 0.4 µg/mL
[8] = target: human ADAM9 (Disintegrin and Metalloproteinase Domain-containing Protein 9), on cells (human) (UniProt Q13443); assay: IHC staining of human tumour tissue: Breast CA (USA-00329); antibody at 0.4 µg/mL
[9] = target: human ADAM9 (Disintegrin and Metalloproteinase Domain-containing Protein 9), on cells (human) (UniProt Q13443); assay: IHC staining of human tumour tissue: Colon CA (AGR-00237 B); antibody at 0.4 µg/mL
[10] = target: human ADAM9 (Disintegrin and Metalloproteinase Domain-containing Protein 9), on cells (human) (UniProt Q13443); assay: IHC staining of human tumour tissue: Colon CA (ILS11330 B); antibody at 0.4 µg/mL
[11] = target: human ADAM9 (Disintegrin and Metalloproteinase Domain-containing Protein 9), on cells (human) (UniProt Q13443); assay: IHC staining of human tumour tissue: NSCLC (ILS10108), Large Cell Carcinoma; antibody at 0.4 µg/mL

human ADAM9 (Disintegrin and Metalloproteinase Domain-containing Protein 9), on cells (human), sequence (Q13443 206-819): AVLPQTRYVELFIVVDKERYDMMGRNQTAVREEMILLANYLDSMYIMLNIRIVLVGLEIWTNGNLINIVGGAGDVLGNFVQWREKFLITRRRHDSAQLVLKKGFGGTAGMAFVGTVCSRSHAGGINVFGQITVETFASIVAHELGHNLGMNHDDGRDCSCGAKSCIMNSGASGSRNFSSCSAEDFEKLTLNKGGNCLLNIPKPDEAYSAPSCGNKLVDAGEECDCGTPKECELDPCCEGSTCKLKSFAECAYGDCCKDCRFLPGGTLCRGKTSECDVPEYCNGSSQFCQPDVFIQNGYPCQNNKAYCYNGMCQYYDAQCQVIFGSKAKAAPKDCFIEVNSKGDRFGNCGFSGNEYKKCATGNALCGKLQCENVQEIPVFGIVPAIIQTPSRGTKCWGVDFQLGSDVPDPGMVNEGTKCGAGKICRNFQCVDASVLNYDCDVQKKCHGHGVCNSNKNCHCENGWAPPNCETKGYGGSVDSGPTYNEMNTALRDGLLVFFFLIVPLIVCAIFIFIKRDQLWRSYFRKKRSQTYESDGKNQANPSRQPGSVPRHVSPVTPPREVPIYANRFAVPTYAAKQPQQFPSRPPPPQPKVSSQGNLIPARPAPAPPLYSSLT

Score [1]: 3
Score [2]: 1
Score [3]: 1
Score [4]: 3
Score [5]: 2
Score [6]: 3
Score [7]: 2
Score [8]: 3
Score [9]: 3
Score [10]: 2
Score [11]: 3
B1: MAB-A (antibody, V domains shown)
VH: QVQLQQPGAELVKPGASVKLSCKASGYTFTSYWMHWVKQRPGQGLEWIGEIIPINGHTNYNEKFKSKATLTLDKSSSTAYMQLSSLASEDSAVYYCARGGYYYYGSRDYFDYWGQGTTLTVSS
VL: DIVLTQSPASLAVSLGQRATISCKASQSVDYDGDSYMNWYQQIPGQPPKLLIYAASDLESGIPARFSGSGSGTDFTLNIHPVEEEDAATYYCQQSHEDPFTFGGGTKLEIK

From patent US20210275685A1
